Source: IntAct's records for PubMed 25416944

Target: vhl_human VHL (UniProt P40337)
Sequence (P40337 whole entry, looked up): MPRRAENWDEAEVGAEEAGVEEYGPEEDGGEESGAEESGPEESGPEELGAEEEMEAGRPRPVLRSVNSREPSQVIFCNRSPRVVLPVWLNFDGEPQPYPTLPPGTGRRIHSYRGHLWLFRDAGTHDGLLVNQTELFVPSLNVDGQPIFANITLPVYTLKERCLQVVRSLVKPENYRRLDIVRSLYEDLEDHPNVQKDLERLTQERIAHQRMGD

Sequence of T-complex protein 1 subunit alpha (Saccharomyces cerevisiae), P12612 L305A (P12612 whole entry L305A, one chain of several): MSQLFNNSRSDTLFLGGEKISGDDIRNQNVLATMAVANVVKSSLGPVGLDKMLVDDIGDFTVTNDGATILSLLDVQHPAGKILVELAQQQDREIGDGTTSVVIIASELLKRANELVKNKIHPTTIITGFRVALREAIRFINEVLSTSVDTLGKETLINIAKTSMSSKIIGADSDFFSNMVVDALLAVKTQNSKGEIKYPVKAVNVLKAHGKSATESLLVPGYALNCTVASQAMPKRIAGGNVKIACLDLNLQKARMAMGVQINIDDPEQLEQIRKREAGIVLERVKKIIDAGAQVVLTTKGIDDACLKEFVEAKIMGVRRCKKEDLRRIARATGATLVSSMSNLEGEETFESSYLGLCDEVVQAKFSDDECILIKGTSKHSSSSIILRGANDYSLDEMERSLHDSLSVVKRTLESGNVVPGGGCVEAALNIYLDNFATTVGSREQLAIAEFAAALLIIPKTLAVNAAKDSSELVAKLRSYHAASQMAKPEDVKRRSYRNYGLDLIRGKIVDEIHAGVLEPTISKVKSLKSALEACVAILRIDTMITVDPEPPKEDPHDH
Sequence of T-complex protein 1 subunit alpha (Saccharomyces cerevisiae), P12612 R319A (P12612 whole entry R319A, one chain of several): as the sequence (P12612 whole entry L305A, one chain of several) above, with A305L, R319A counted along it
Sequence of T-complex protein 1 subunit alpha (Saccharomyces cerevisiae), P12612 V311A (P12612 whole entry V311A, one chain of several): as the sequence (P12612 whole entry L305A, one chain of several) above, with A305L, V311A counted along it
Sequence of T-complex protein 1 subunit alpha (Saccharomyces cerevisiae), P12612 L326A (P12612 whole entry L326A, one chain of several): as the sequence (P12612 whole entry L305A, one chain of several) above, with A305L, L326A counted along it

effect of a mutation on the interaction | Substance
decreasing interaction strength | T-complex protein 1 subunit alpha (Saccharomyces cerevisiae), P12612 R319A
decreasing interaction strength | T-complex protein 1 subunit alpha (Saccharomyces cerevisiae), P12612 L326A
decreasing interaction strength | T-complex protein 1 subunit alpha (Saccharomyces cerevisiae), P12612 V311A
decreasing interaction strength | T-complex protein 1 subunit alpha (Saccharomyces cerevisiae), P12612 L305A
